Experimental data reported in patent publication US11278600B2, “Human alpha-galactosidase variants” (Codexis, Inc., priority 2014, dated 2022).
Positions count from the first letter of the chain named.

B1: 375 (protein)
chain: LDNGLARTPTMGWLHWERFMCNLDCQEEPDSCISEKLFMEMAERMVIEGWKDAGYEYLCIDDCWMAPQRDSEGRLQADPQRFPHGIRQLANYVHSKGLKLGIYADVGNKTCAGFPGSFGYYDIDAQTFADWGVDLLKFDGCYCDSLENLADGYKHMSLALNRTGRSIVYSCEWPLYMWPFQKPNYTEIRQYCNHWRNFADIDDSWKSIKSILDWTSRNQERIVDVAGPGGWNDPDMLVIGNFGLSWDQQVTQMALWAIMAAPLFMSNDLRHISPQAKALLQDKDVIAINQDPLGKQGYQLRKGDNFEVWERPLSGDAWAVAIINRQEIGGPRSYTIPVASLGKGVACNPACFITQLLPVKRQLGFYNWTSRLKSHINPTGTVLLQLENTMQMSLKDLL
modifications: Synthetic Polypeptide sequence of Variant No. 375 of mature Human GLA
B2: 381 (protein)
chain: B1 chain with I47S, Y92S
modifications: Synthetic Polypeptide sequence of Variant No. 381 of mature Human GLA
B3: 384 (protein)
chain: B1 chain with I47S, Y92V
modifications: Synthetic Polypeptide sequence of Variant No. 384 of mature Human GLA
B4: 389 (protein)
chain: B1 chain with I47S, V93S
modifications: Synthetic Polypeptide sequence of Variant No. 389 of mature Human GLA
B5: 360 (protein)
chain: B1 chain with R44E, I47S, K206A
modifications: Synthetic Polypeptide sequence of Variant No. 360 of mature Human GLA
B6: 376 (protein)
chain: B1 chain with M41P, I47S
modifications: Synthetic Polypeptide sequence of Variant No. 376 of mature Human GLA
B7: 383 (protein)
chain: B1 chain with I47S, Y92C
modifications: Synthetic Polypeptide sequence of Variant No. 383 of mature Human GLA
B8: 380 (protein)
chain: B1 chain with I47S, Y92K
modifications: Synthetic Polypeptide sequence of Variant No. 380 of mature Human GLA
B9: 388 (protein)
chain: B1 chain with I47S, V93L
modifications: Synthetic Polypeptide sequence of Variant No. 388 of mature Human GLA
B10: 382 (protein)
chain: B1 chain with I47S, H94N
modifications: Synthetic Polypeptide sequence of Variant No. 382 of mature Human GLA
B11: 379 (protein)
chain: B1 chain with I47T
modifications: Synthetic Polypeptide sequence of Variant No. 379 of mature Human GLA
B12: 378 (protein)
chain: B1 chain with R44T, I47S
modifications: Synthetic Polypeptide sequence of Variant No. 378 of mature Human GLA
B13: 387 (protein)
chain: B1 chain with I47S, V93T
modifications: Synthetic Polypeptide sequence of Variant No. 387 of mature Human GLA
B14: 377 (protein)
chain: B1 chain with M39T, I47S
modifications: Synthetic Polypeptide sequence of Variant No. 377 of mature Human GLA
B15: 385 (protein)
chain: B1 chain with I47S, Y92A
modifications: Synthetic Polypeptide sequence of Variant No. 385 of mature Human GLA
B16: 386 (protein)
chain: B1 chain with I47S, H94R
modifications: Synthetic Polypeptide sequence of Variant No. 386 of mature Human GLA

Assay: HTP-analysis of yeast culture supernatants, no challenge (MUGal hydrolysis)
Assay type: biochemical
Settings: activity of the variant/activity of Rd4BB (SEQ ID NO: 15)
In short: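 GLA variants were expressed in INVSc1 yeast grown in SD-Ura broth with glucose at 30° C., and culture supernatants were collected after 66-84 h. Supernatant was mixed with McIlvaine buffer pH 4.8 and MUGal (2 mM stock) in 50 mM citrate, 200 mM KCl, pH 4.6, incubated at 37° C. for 30-180 minutes, then quenched with sodium carbonate.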

| Molecule | Relative Activity of GLA Variants After No Challenge (NC) |
| --- | --- |
| B1 | + (0.5 to 1.5 relative activity over Rd4BB (SEQ ID NO: 15)) |
| B2 | + (0.5 to 1.5 relative activity over Rd4BB (SEQ ID NO: 15)) |
| B3 | + (0.5 to 1.5 relative activity over Rd4BB (SEQ ID NO: 15)) |
| B4 | + (0.5 to 1.5 relative activity over Rd4BB (SEQ ID NO: 15)) |
| B5 | + (0.5 to 1.5 relative activity over Rd4BB (SEQ ID NO: 15)) |
| B6 | − (<0.5 relative activity over Rd4BB (SEQ ID NO: 15)) |
| B7 | + (0.5 to 1.5 relative activity over Rd4BB (SEQ ID NO: 15)) |
| B8 | + (0.5 to 1.5 relative activity over Rd4BB (SEQ ID NO: 15)) |
| B9 | + (0.5 to 1.5 relative activity over Rd4BB (SEQ ID NO: 15)) |
| B10 | − (<0.5 relative activity over Rd4BB (SEQ ID NO: 15)) |
| B11 | + (0.5 to 1.5 relative activity over Rd4BB (SEQ ID NO: 15)) |
| B12 | + (0.5 to 1.5 relative activity over Rd4BB (SEQ ID NO: 15)) |
| B13 | + (0.5 to 1.5 relative activity over Rd4BB (SEQ ID NO: 15)) |
| B14 | + (0.5 to 1.5 relative activity over Rd4BB (SEQ ID NO: 15)) |
| B15 | + (0.5 to 1.5 relative activity over Rd4BB (SEQ ID NO: 15)) |
| B16 | − (<0.5 relative activity over Rd4BB (SEQ ID NO: 15)) |

Assay: HTP-analysis of supernatants pretreated with acid (MUGal hydrolysis)
Assay type: biochemical
Settings: activity of the variant/activity of Rd4BB (SEQ ID NO: 15); challenge at pH 3.7
In short: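 GLA variants were secreted from INVSc1 yeast grown 66-84 h at 30° C. in SD-Ura with 2% glucose; supernatants were mixed with McIlvaine buffer pH 3.3-4.3 and held at 37° C. for 1-3 h. Residual activity on MUGal at pH 4.8 was then measured by fluorescence.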

| Molecule | Relative Activity of GLA Variants After Challenge at pH 3.7 |
| --- | --- |
| B1 | + (0.5 to 1.5 relative activity over Rd4BB (SEQ ID NO: 15)) |
| B2 | + (0.5 to 1.5 relative activity over Rd4BB (SEQ ID NO: 15)) |
| B3 | + (0.5 to 1.5 relative activity over Rd4BB (SEQ ID NO: 15)) |
| B4 | + (0.5 to 1.5 relative activity over Rd4BB (SEQ ID NO: 15)) |
| B5 | + (0.5 to 1.5 relative activity over Rd4BB (SEQ ID NO: 15)) |
| B6 | − (<0.5 relative activity over Rd4BB (SEQ ID NO: 15)) |
| B7 | − (<0.5 relative activity over Rd4BB (SEQ ID NO: 15)) |
| B8 | + (0.5 to 1.5 relative activity over Rd4BB (SEQ ID NO: 15)) |
| B9 | − (<0.5 relative activity over Rd4BB (SEQ ID NO: 15)) |
| B10 | − (<0.5 relative activity over Rd4BB (SEQ ID NO: 15)) |
| B11 | ++ (>1.5 to 2.5 relative activity over Rd4BB (SEQ ID NO: 15)) |
| B12 | − (<0.5 relative activity over Rd4BB (SEQ ID NO: 15)) |
| B13 | + (0.5 to 1.5 relative activity over Rd4BB (SEQ ID NO: 15)) |
| B14 | ++ (>1.5 to 2.5 relative activity over Rd4BB (SEQ ID NO: 15)) |
| B15 | + (0.5 to 1.5 relative activity over Rd4BB (SEQ ID NO: 15)) |
| B16 | + (0.5 to 1.5 relative activity over Rd4BB (SEQ ID NO: 15)) |

Assay: HTP-analysis of supernatants pretreated with base (MUGal hydrolysis)
Assay type: biochemical
Settings: activity of the variant/activity of Rd4BB (SEQ ID NO: 15); challenge at pH 9.65
In short: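 GLA variants secreted from yeast INVSc1; culture supernatants pre-incubated with McIlvaine buffer pH 7.0–8.2 or 200 mM bicarbonate pH 9.1–9.7 at 37° C. for 1–18 h. Residual activity: MUGal (4 mM stock) hydrolysis at pH 4.3–4.8, 37° C., 30–180 min, carbonate quench; fluorescence Ex 355/Em 448 nm.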

| Molecule | Relative Activity of GLA Variants After Challenge at pH 9.65 |
| --- | --- |
| B1 | + (0.5 to 1.5 relative activity over Rd4BB (SEQ ID NO: 15)) |
| B2 | − (<0.5 relative activity over Rd4BB (SEQ ID NO: 15)) |
| B3 | − (<0.5 relative activity over Rd4BB (SEQ ID NO: 15)) |
| B4 | − (<0.5 relative activity over Rd4BB (SEQ ID NO: 15)) |
| B5 | + (0.5 to 1.5 relative activity over Rd4BB (SEQ ID NO: 15)) |
| B6 | − (<0.5 relative activity over Rd4BB (SEQ ID NO: 15)) |
| B7 | − (<0.5 relative activity over Rd4BB (SEQ ID NO: 15)) |
| B8 | − (<0.5 relative activity over Rd4BB (SEQ ID NO: 15)) |
| B9 | + (0.5 to 1.5 relative activity over Rd4BB (SEQ ID NO: 15)) |
| B10 | − (<0.5 relative activity over Rd4BB (SEQ ID NO: 15)) |
| B11 | + (0.5 to 1.5 relative activity over Rd4BB (SEQ ID NO: 15)) |
| B12 | + (0.5 to 1.5 relative activity over Rd4BB (SEQ ID NO: 15)) |
| B13 | − (<0.5 relative activity over Rd4BB (SEQ ID NO: 15)) |
| B14 | − (<0.5 relative activity over Rd4BB (SEQ ID NO: 15)) |
| B15 | − (<0.5 relative activity over Rd4BB (SEQ ID NO: 15)) |
| B16 | − (<0.5 relative activity over Rd4BB (SEQ ID NO: 15)) |
